Experimental data as given in patent publication US20190359687A1 (Bayer, published 2019).
No end group written: not given here. *: point of attachment. Biotin = O=C1N[C@H]2[C@H](CS[C@H]2CCCCC(=O)*)N1

T1: B-domain deleted FVIII (human, UniProt P00451 20-2351)
T1 construct: control without scFv; also called BDD; BDD-FVIII
T1 sequence (looked up): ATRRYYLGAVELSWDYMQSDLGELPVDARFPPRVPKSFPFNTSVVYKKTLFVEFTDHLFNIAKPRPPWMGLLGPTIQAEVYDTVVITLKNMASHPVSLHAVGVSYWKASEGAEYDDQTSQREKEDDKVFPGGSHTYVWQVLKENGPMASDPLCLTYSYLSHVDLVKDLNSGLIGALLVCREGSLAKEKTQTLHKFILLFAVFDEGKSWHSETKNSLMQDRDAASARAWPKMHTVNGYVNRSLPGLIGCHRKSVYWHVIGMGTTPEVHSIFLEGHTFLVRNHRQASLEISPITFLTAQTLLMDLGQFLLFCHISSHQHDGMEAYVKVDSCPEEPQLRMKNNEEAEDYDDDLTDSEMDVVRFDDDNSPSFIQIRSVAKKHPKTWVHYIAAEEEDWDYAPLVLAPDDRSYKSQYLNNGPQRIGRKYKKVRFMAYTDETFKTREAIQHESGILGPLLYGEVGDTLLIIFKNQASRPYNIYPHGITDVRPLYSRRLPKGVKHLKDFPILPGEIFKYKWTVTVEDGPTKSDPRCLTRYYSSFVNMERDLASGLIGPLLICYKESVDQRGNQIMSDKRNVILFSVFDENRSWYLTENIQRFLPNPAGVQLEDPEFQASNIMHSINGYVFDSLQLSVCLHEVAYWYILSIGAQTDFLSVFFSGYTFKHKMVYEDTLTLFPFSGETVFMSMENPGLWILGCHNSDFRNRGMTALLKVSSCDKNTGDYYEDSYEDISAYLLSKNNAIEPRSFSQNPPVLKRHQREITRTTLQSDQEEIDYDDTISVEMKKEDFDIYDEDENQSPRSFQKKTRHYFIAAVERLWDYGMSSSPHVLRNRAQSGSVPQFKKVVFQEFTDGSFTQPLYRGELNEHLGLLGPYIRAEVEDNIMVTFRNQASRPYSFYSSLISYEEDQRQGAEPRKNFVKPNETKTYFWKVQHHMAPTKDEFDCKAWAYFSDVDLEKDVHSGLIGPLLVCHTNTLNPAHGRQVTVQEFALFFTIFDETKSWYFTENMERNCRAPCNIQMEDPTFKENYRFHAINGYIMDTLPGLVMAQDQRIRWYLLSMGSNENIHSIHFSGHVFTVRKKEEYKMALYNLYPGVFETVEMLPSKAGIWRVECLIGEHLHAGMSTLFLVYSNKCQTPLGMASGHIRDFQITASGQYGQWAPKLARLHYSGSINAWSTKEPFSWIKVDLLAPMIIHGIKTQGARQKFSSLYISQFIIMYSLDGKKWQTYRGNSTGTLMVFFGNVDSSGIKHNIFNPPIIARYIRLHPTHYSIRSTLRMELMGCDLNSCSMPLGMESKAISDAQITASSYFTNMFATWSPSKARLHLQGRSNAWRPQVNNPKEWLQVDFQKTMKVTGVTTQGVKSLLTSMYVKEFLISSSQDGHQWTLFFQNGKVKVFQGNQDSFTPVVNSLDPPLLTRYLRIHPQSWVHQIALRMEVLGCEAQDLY

T2: GP5-13 alanine scanning peptide (human, N-terminal biotin)
T2 construct: GP5 with alanine at position 13
T2 peptide: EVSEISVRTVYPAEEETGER

T3: GP5-11 alanine scanning peptide (human, N-terminal biotin)
T3 construct: GP5 with alanine at position 11
T3 peptide: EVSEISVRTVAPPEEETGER

T4: GP5-14 alanine scanning peptide (human, N-terminal biotin)
T4 construct: GP5 with alanine at position 14
T4 peptide: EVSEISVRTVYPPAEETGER

T5: GP5-16 alanine scanning peptide (human, N-terminal biotin)
T5 construct: GP5 with alanine at position 16
T5 peptide: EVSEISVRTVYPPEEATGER

T6: GP14 peptide (human)
T6 peptide: Biotin-PEEETGER

T7: GP9 peptide (human)
T7 peptide: Biotin-RTVYPPEE

T8: GP7 peptide (human)
T8 peptide: Biotin-SVRTVYPP

T9: GP13 peptide (human)
T9 peptide: Biotin-PPEEETGE

T10: GP15 peptide (human)
T10 peptide: Biotin-EEETGERV

T11: GP10 peptide (human)
T11 peptide: Biotin-TVYPPEEE

T12: GP16 peptide (human)
T12 peptide: Biotin-EETGERVQ

T13: GP12 peptide (human)
T13 peptide: Biotin-YPPEEETG

T14: GP11 peptide (human)
T14 peptide: Biotin-VYPPEEET

T15: GP8 peptide (human)
T15 peptide: Biotin-VRTVYPPE

B1: human glycophorin A in the red blood cell membrane (other, UniProt P02724 20-150, looked up)
chain: LSTTEVAMHTSTSSSVTKSYISSQTNDTHKRDTYAATPRAHEVSEISVRTVYPPEEETGERVQLAHHFSEPEITLIIFGVMAGVIGTILLISYGIRRLIKKSPSDVKPLPSPDTDVPLSSVEIENPETSDQ
notes: whole, on cells; used for intact RBC, isolated RBC membranes and transfected cells; the assay field tells which; also called GPA; hGPA
B2: TPP-5906 Fab (Fab, V domains shown)
VH: EVQLVQSGAEVKKPGASVKVSCKASGYTFTTYTIHWVRQAPGQGLEWMGYINPSSGYTRYNPKFKGRVTMTRDKSTSTAYMELRSLRSDDTAVYYCQTGTRDYWGQGTTVTVSS
VL: DIQLTQSPSFLSASVGDRVTITCRASSSVSYIYWFQQKPGKAPKLLIYATSTLQSGVPSRFSGSGSGTEYTLTISSLQPEDFATYYCHQRNSFPYTFGQGTKLEIKR
notes: also called parental humanized and germlined 6C12 Fab

Assays:
[1] = target: T1, B-domain deleted FVIII; test: RBC partition assay, FVIII activity left in plasma
[2] = target: B1; test: SPR, human RBC membranes, Fab
Procedure: Kinetic analysis of the antibody binding to human red blood cell membranes was also performed using surface plasmon resonance (SPR) using a Biacore instrument. In this assay membranes prepared from human red blood cells were attached to a L1 sensor matrix and antibodies were flowed over the RBC membranes.

[3] = target: T2, GP5-13 alanine scanning peptide; test: alanine scanning peptide ELISA
[4] = target: T3, GP5-11 alanine scanning peptide; test: alanine scanning peptide ELISA
[5] = target: T4, GP5-14 alanine scanning peptide; test: alanine scanning peptide ELISA
[6] = target: T5, GP5-16 alanine scanning peptide; test: alanine scanning peptide ELISA
[7] = target: T6, GP14 peptide; test: peptide ELISA, Fab
Source text: (§1) These peptides were attached to the surface of a streptavidin coated plate via a biotin moiety that was present at the N-terminus of each peptide.

[8] = target: T7, GP9 peptide; test: peptide ELISA, Fab
Source text: as §1

[9] = target: T8, GP7 peptide; test: peptide ELISA, Fab
Source text: as §1

[10] = target: T9, GP13 peptide; test: peptide ELISA, Fab
Source text: as §1

[11] = target: T10, GP15 peptide; test: peptide ELISA, Fab
Source text: as §1

[12] = target: T11, GP10 peptide; test: peptide ELISA, Fab
Source text: as §1

[13] = target: T12, GP16 peptide; test: peptide ELISA, Fab
Source text: as §1

[14] = target: T13, GP12 peptide; test: peptide ELISA, Fab
Source text: as §1

[15] = target: T14, GP11 peptide; test: peptide ELISA, Fab
Source text: as §1

[16] = target: T15, GP8 peptide; test: peptide ELISA, Fab
Source text: as §1

Row | binding result [1] | fold improvement of affinity against the parental antibody [2] [fold] | percent reduction of binding [3] [%] | percent reduction of binding [4] [%] | percent reduction of binding [5] [%] | percent reduction of binding [6] [%] | binding result [7] | binding result [8] | binding result [9] | binding result [10] | binding result [11] | binding result [12] | binding result [13] | binding result [14] | binding result [15] | binding result [16] | Binder
1 | no binding (tested: 1 IU/mL) |  |  |  |  |  |  |  |  |  |  |  |  |  |  |  | B1
2 |  | ~200 | 70 | > 95 | > 95 | 50 | no binding (tested: 0.5 ug/ml) | no binding (tested: 0.5 ug/ml) | no binding (tested: 0.5 ug/ml) | no binding (tested: 0.5 ug/ml) | no binding (tested: 0.5 ug/ml) | no binding (tested: 0.5 ug/ml) | no binding (tested: 0.5 ug/ml) | no binding (tested: 0.5 ug/ml) | no binding (tested: 0.5 ug/ml) | no binding (tested: 0.5 ug/ml) | B2
